Assay results taken from article PMC4414246.

Legend:
Assay in all cases: fluorescence polarization
U1A L49N = U1A L49N (UniProt P09012 10-89, L49N)
dK50dM51 N15A = dK50dM51 N15A (UniProt P09012 10-89, N15A;del50-51)
dK50dM51 S46A = dK50dM51 S46A (UniProt P09012 10-89, S46A;del50-51)
U1A E19S:Y13Q = U1A E19S:Y13Q (UniProt P09012 10-89, Y13Q;E19S)
U1A N15A = U1A N15A (UniProt P09012 10-89, N15A)
dK50dM51 S48A = dK50dM51 S48A (UniProt P09012 10-89, S48A;del50-51)
U1A L49A = U1A L49A (UniProt P09012 10-89, L49A)
U1A L49S = U1A L49S (UniProt P09012 10-89, L49S)
U1A E19N = U1A E19N (UniProt P09012 10-89, E19N)
U1A E19S:N15V = U1A E19S:N15V (UniProt P09012 10-89, N15V;E19S)
U1A L49A:N15V = U1A L49A:N15V (UniProt P09012 10-89, N15V;L49A)
U1A N16A = U1A N16A (UniProt P09012 10-89, N16A)
U1A E19A:N15V = U1A E19A:N15V (UniProt P09012 10-89, N15V;E19A)
U1A = U1A (UniProt P09012 10-89)
dK50dM51 L49A = dK50dM51 L49A (UniProt P09012 10-89, L49A;del50-51)
U1A L49A:E19A = U1A L49A:E19A (UniProt P09012 10-89, E19A;L49A)
U1A K50A = U1A K50A (UniProt P09012 10-89, K50A)
U1A L49A:F56A = U1A L49A:F56A (UniProt P09012 10-89, L49A;F56A)
U1A L49F = U1A L49F (UniProt P09012 10-89, L49F)
U1A E19F = U1A E19F (UniProt P09012 10-89, E19F)
U1A M51A = U1A M51A (UniProt P09012 10-89, M51A)
U1A E19S [1] = target: T1, U1A E19S (UniProt P09012 10-89, E19S)
U1A M51A:Y13Q = U1A M51A:Y13Q (UniProt P09012 10-89, Y13Q;M51A)
U1A E19S [2] = target: T1, U1A E19S; remark: listed apart in the source

B1: TAR RNA (structured_RNA)
RNA: GGCAGAUCUGAGCCUGGGAGCUCUCUGCC
Kd (U1A L49N): 14.4 ± 2.1 µM
Kd (dK50dM51 N15A): 91.1 ± 8.8 µM
Kd (dK50dM51 S46A): 24.5 ± 6 µM
Kd (U1A E19S:Y13Q): 10.3 ± 2.8 µM
Kd (U1A N15A): 11.7 ± 0.9 µM
Kd (dK50dM51 S48A): 33.9 ± 15.9 µM
Kd (U1A L49A): 5.2 ± 0.5 µM
Kd (U1A L49S): 12.4 ± 2.3 µM
Kd (U1A E19N): 12 ± 0.9 µM
Kd (U1A E19S:N15V): 11.3 ± 0.8 µM
Kd (U1A L49A:N15V): 39.2 ± 9.6 µM
Kd (U1A N16A): 8.8 ± 1.4 µM
Kd (U1A E19A:N15V): 14.2 ± 1.4 µM
Kd (U1A): 19.1 ± 4.9 µM
Kd (dK50dM51 L49A): 91.6 ± 39.7 µM
Kd (U1A L49A:E19A): 6.9 ± 0.8 µM
Kd (U1A K50A): 39.6 ± 12.2 µM
Kd (U1A L49A:F56A): 123 ± 38.7 µM
Kd (U1A L49F): 24.1 ± 4.3 µM
Kd (U1A E19F): 6.2 ± 0.8 µM
Kd (U1A M51A): 4.9 ± 0.6 µM
Kd (U1A E19S [1]): 4.1 ± 0.3 µM
Kd (U1A M51A:Y13Q): 210 ± 84.3 µM
binding signal (U1A E19S [2]): ~1.6 fold lower affinity than without tRNA
